Measured values: the supplement of paper PMC11136658

Tested on: peptide library, one residue held at a place counted from the Y acceptor
Test: relative phosphorylation of the sub-library (ratio to the mean residue at this position); higher = residue favoured
Outline: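 Biotinylated Tyr-centred peptide library mixtures, each fixing one residue at one position from −5 to +5, were incubated with purified recombinant kinases in 384-well plates for 90 min with 50 μM ATP plus γ-32P-ATP. Streptavidin membranes captured the peptides, which were rinsed and quantified by phosphorimaging and ImageQuant. At each position, intensities were divided by the sum of the 18 randomized residues (16 for the Ser/Thr-free library) and multiplied by that number. Each value is phosphorylation relative to the mean randomized residue.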

Chain of TYRO3, construct: aa455-end, human (Q06418 455-890, looked up): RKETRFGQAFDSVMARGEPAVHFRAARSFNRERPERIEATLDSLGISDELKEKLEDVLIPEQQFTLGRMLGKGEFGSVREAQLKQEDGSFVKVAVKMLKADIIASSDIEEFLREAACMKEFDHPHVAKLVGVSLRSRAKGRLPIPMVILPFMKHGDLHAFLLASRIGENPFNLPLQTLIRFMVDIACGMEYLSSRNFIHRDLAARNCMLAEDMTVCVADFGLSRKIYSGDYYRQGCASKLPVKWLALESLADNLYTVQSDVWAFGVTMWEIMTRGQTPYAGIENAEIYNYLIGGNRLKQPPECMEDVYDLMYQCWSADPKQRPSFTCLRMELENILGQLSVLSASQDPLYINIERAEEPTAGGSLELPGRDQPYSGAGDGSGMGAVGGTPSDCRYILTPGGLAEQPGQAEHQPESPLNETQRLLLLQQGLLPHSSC
Chain of ZAP70, construct: Full length, human (P43403 whole entry, looked up): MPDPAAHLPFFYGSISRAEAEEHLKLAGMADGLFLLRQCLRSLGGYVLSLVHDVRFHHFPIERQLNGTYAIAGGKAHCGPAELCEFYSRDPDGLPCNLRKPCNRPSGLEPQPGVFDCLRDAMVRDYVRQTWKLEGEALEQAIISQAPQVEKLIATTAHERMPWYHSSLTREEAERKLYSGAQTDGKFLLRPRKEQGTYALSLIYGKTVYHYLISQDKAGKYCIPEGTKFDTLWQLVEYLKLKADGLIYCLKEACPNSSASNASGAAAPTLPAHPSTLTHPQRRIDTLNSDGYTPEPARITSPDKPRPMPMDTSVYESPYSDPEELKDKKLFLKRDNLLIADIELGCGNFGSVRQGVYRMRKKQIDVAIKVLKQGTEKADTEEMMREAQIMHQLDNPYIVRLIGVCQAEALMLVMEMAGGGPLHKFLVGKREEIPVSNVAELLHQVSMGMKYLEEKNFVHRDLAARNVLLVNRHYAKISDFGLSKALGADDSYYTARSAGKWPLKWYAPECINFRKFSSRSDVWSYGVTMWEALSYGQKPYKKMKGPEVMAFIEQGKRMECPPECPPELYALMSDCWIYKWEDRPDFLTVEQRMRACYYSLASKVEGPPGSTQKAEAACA
Chain of YES1, construct: Full length, human (P07947 whole entry, looked up): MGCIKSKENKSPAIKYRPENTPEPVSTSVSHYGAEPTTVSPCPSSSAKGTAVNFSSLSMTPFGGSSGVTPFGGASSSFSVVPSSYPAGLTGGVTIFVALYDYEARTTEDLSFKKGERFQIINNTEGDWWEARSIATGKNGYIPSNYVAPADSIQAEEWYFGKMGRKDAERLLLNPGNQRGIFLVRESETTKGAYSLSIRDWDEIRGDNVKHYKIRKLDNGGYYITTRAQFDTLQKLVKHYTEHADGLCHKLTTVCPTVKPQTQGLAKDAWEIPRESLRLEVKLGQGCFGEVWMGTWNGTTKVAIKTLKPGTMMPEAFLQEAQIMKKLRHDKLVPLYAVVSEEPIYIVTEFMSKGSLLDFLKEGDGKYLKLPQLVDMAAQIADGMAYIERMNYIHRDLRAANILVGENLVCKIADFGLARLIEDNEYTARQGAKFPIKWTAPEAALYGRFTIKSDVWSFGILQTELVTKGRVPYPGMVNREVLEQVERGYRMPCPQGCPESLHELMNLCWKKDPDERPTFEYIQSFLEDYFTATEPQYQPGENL

TYRO3, construct: aa455-end, human (from UniProt Q06418)
relative phosphorylation
Details | at +1 | at +2 | at +3 | at +4 | at +5 | at -1 | at -2 | at -3 | at -4 | at -5
A fixed | 1.64 | 0.682 | 0.632 | 0.906 | 1.04 | 0.893 | 0.982 | 1 | 1.15 | 0.987
D fixed | 0.676 | 0.549 | 0.322 | 0.681 | 0.669 | 0.66 | 0.935 | 1.1 | 1.03 | 1.01
E fixed | 1.19 | 0.767 | 0.252 | 0.729 | 0.592 | 0.56 | 1.04 | 1.28 | 1.19 | 0.874
F fixed | 1.07 | 1.28 | 1.44 | 1.11 | 0.885 | 1.23 | 0.653 | 0.819 | 0.883 | 0.866
G fixed | 0.816 | 0.424 | 0.71 | 1.2 | 1.26 | 0.524 | 1.3 | 1.18 | 1.35 | 1.2
H fixed | 1.12 | 0.864 | 1.36 | 1.16 | 0.955 | 1.4 | 1.09 | 1.09 | 0.966 | 1.05
I fixed | 0.991 | 1.12 | 1.58 | 0.796 | 0.758 | 1.63 | 0.772 | 0.656 | 0.826 | 0.854
K fixed | 0.534 | 1.1 | 1.03 | 1.18 | 1.39 | 0.719 | 1.14 | 0.998 | 1.04 | 1.16
L fixed | 0.938 | 1.36 | 1.19 | 0.932 | 0.867 | 1.88 | 0.858 | 0.752 | 0.843 | 0.892
M fixed | 1.26 | 1.22 | 1.18 | 1.04 | 0.868 | 1.09 | 0.7 | 0.866 | 0.864 | 0.964
N fixed | 0.544 | 0.901 | 0.626 | 0.843 | 1.01 | 1.03 | 1.25 | 1.16 | 0.956 | 1.19
P fixed | 0.412 | 0.657 | 0.864 | 1.18 | 1.62 | 0.821 | 1.09 | 1.27 | 1.3 | 1.19
Q fixed | 1.13 | 0.962 | 0.795 | 1.07 | 0.936 | 0.837 | 1.23 | 1.06 | 1.22 | 1.06
R fixed | 0.597 | 1.13 | 1.2 | 1.28 | 1.33 | 0.655 | 1.04 | 0.959 | 1.06 | 1.19
S fixed | 1.25 | 0.799 | 0.718 | 1.01 | 1.06 | 0.849 | 1.28 | 1.2 | 0.866 | 0.977
T fixed | 1.2 | 0.996 | 0.808 | 0.85 | 0.982 | 1.07 | 1.13 | 1.09 | 0.775 | 0.884
V fixed | 1.37 | 1.21 | 1.26 | 0.876 | 0.831 | 1.16 | 0.868 | 0.755 | 0.803 | 0.785
W fixed | 1.25 | 1.98 | 2.04 | 1.16 | 0.946 | 1 | 0.649 | 0.764 | 0.888 | 0.868
pThr fixed | 1.04 | 0.889 | 0.217 | 0.396 | 0.43 | 0.664 | 0.826 | 0.977 | 0.895 | 0.854
pTyr fixed | 0.911 | 1.28 | 0.324 | 0.56 | 0.399 | 1.06 | 0.954 | 1.2 | 1.12 | 0.96

YES1, construct: Full length, human (from UniProt P07947)
relative phosphorylation
Details | at +1 | at +2 | at +3 | at +4 | at +5 | at -1 | at -2 | at -3 | at -4 | at -5
A fixed | 1.59 | 1.07 | 0.621 | 0.835 | 0.959 | 0.583 | 0.987 | 0.821 | 0.944 | 0.967
D fixed | 0.822 | 0.636 | 0.492 | 0.759 | 0.76 | 0.641 | 1.35 | 1.7 | 1.42 | 1.35
E fixed | 1.32 | 1.28 | 0.546 | 0.885 | 0.867 | 0.819 | 1.41 | 2.16 | 1.57 | 1.1
F fixed | 0.723 | 1.08 | 2.83 | 1.24 | 1.13 | 0.652 | 0.57 | 0.794 | 0.731 | 0.861
G fixed | 2.83 | 0.751 | 0.668 | 1.01 | 0.957 | 0.569 | 1.11 | 1.04 | 1.25 | 1.03
H fixed | 0.8 | 0.71 | 1 | 1.12 | 1.07 | 0.733 | 1.27 | 1.03 | 1.02 | 1.02
I fixed | 0.589 | 1.15 | 1.52 | 0.814 | 0.675 | 3.12 | 0.56 | 0.559 | 0.75 | 0.675
K fixed | 0.418 | 0.721 | 0.552 | 1.06 | 1.19 | 0.468 | 0.873 | 0.697 | 0.989 | 1.23
L fixed | 0.596 | 1.08 | 1.46 | 0.866 | 0.841 | 1.71 | 0.679 | 0.66 | 0.951 | 0.719
M fixed | 1.11 | 1.19 | 1.01 | 1.29 | 0.932 | 0.974 | 0.727 | 0.74 | 0.952 | 0.834
N fixed | 0.644 | 0.791 | 0.657 | 0.899 | 1.09 | 0.463 | 1.4 | 1.39 | 1.01 | 1.35
P fixed | 0.462 | 0.724 | 0.518 | 0.785 | 1.37 | 1.3 | 1.31 | 1.02 | 1.12 | 1.22
Q fixed | 0.897 | 1 | 0.599 | 1.17 | 1.01 | 0.521 | 1.18 | 1.15 | 1.09 | 1.1
R fixed | 0.538 | 0.951 | 0.913 | 1.36 | 1.51 | 0.399 | 0.95 | 0.76 | 1.01 | 1.16
S fixed | 1.13 | 1.3 | 0.672 | 0.938 | 1.07 | 0.518 | 1.31 | 1.08 | 0.846 | 0.949
T fixed | 1.08 | 1.44 | 0.908 | 1.01 | 1 | 1.51 | 0.968 | 0.862 | 0.727 | 0.908
V fixed | 0.892 | 1.3 | 1.37 | 0.842 | 0.749 | 2.26 | 0.663 | 0.558 | 0.857 | 0.783
W fixed | 1.54 | 0.815 | 1.67 | 1.11 | 0.821 | 0.766 | 0.69 | 0.979 | 0.762 | 0.755
pThr fixed | 1.21 | 1.33 | 0.497 | 0.667 | 0.674 | 1.07 | 1.1 | 1.13 | 1.07 | 1.17
pTyr fixed | 2.21 | 1.24 | 0.636 | 0.841 | 0.739 | 0.806 | 1.21 | 1.18 | 1.27 | 1.2

ZAP70, construct: Full length, human (from UniProt P43403)
relative phosphorylation
Details | at +1 | at +2 | at +3 | at +4 | at +5 | at -1 | at -2 | at -3 | at -4 | at -5
A fixed | 1.06 | 0.821 | 0.963 | 0.884 | 1.33 | 0.998 | 0.898 | 0.967 | 1.56 | 1.12
D fixed | 0.587 | 0.722 | 0.434 | 1.07 | 1.28 | 3.39 | 1.51 | 2.04 | 1.67 | 1.57
E fixed | 1.29 | 1.08 | 0.275 | 1 | 1.28 | 1.95 | 2.19 | 2.09 | 2.51 | 1.4
F fixed | 1.5 | 1.2 | 0.924 | 0.707 | 0.618 | 0.579 | 0.492 | 0.617 | 0.494 | 0.863
G fixed | 0.481 | 0.544 | 0.842 | 1.14 | 1.63 | 0.746 | 1.56 | 1.1 | 1.43 | 1.58
H fixed | 1.33 | 0.773 | 0.947 | 1.21 | 0.872 | 0.946 | 1 | 0.848 | 0.854 | 1.15
I fixed | 0.769 | 0.724 | 1.11 | 0.548 | 0.423 | 0.956 | 0.413 | 0.588 | 0.561 | 0.684
K fixed | 0.553 | 0.811 | 0.389 | 1.01 | 0.858 | 0.496 | 0.629 | 0.638 | 0.609 | 0.847
L fixed | 0.761 | 0.949 | 0.956 | 0.764 | 0.55 | 0.796 | 0.465 | 0.559 | 0.571 | 0.553
M fixed | 0.97 | 0.827 | 1.98 | 0.997 | 0.83 | 0.671 | 0.633 | 0.54 | 0.618 | 0.947
N fixed | 0.635 | 1.01 | 0.499 | 0.731 | 0.967 | 1.2 | 1.52 | 1.53 | 0.822 | 1.26
P fixed | 0.314 | 0.988 | 2.61 | 1.77 | 2.28 | 0.594 | 0.845 | 1.06 | 1.76 | 1.08
Q fixed | 1.4 | 1.14 | 0.626 | 1.28 | 0.936 | 0.958 | 1.46 | 1.01 | 1.03 | 0.886
R fixed | 0.448 | 0.77 | 0.432 | 1 | 0.522 | 0.4 | 0.576 | 0.713 | 0.684 | 0.814
S fixed | 0.981 | 0.862 | 1.09 | 1.05 | 1.15 | 0.899 | 1.39 | 1.36 | 0.877 | 0.847
T fixed | 1.31 | 1.08 | 0.782 | 0.955 | 1.25 | 1.04 | 1.26 | 0.966 | 0.661 | 0.925
V fixed | 1.56 | 0.99 | 1.55 | 0.907 | 0.617 | 0.8 | 0.693 | 0.666 | 0.676 | 0.837
W fixed | 2.05 | 2.7 | 1.58 | 0.97 | 0.62 | 0.573 | 0.464 | 0.713 | 0.625 | 0.625
pThr fixed | 1.75 | 2.19 | 0.364 | 0.792 | 1.55 | 6.59 | 4.22 | 4.5 | 2.58 | 2.92
pTyr fixed | 14.8 | 2.62 | 0.501 | 0.573 | 1.09 | 16.3 | 3.62 | 4.31 | 3.03 | 2.17
